Reference: patent US20040058416A1

Biological target: trkB-IgG immunoadhesin (human trkB extracellular domain fused to human IgG-1 Fc) (human)
Assay: competitive displacement of iodinated BDNF from trkB-IgG by unlabelled NT4/5

trkB-IgG immunoadhesin (human trkB extracellular domain fused to human IgG-1 Fc) (human), sequence (Q16620 32-423): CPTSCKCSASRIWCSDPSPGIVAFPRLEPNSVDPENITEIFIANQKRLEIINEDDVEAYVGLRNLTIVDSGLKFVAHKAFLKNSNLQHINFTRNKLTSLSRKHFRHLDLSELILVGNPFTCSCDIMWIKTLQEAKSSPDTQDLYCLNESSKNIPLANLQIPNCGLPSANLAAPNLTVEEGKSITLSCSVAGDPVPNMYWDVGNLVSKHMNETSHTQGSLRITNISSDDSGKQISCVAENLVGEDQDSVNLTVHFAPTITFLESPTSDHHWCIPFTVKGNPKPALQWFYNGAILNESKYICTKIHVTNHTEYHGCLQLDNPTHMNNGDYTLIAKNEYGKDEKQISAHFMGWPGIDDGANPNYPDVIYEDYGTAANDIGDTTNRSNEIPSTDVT

IC50: 0.2 nM
Substance: neurotrophin-4/5 (NT-4/5) (from UniProt P34130 81-210) (ligand)
